The nanobody polyreactivity screen of Harvey et al. (2022)

test: yeast display, Sf9 membrane polyspecificity reagent, FACS + sequencing; frameworks hold sequencing errors
How it was run: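 In a synthetic yeast display library (Saccharomyces cerevisiae BJ5465), nanobody expression was induced with galactose for 36–48 hours. FACS gates were set low and high (top ~1%) using anti-HA fluorescence for expression and streptavidin fluorescence for binding of the Sf9 membrane reagent. Each polyreactivity label is drawn from the gate of origin.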

Sequence	polyreactivity (PSR sort gate)
QVQLVESGGGLVQAGGSLRLSCASSGRNFCIYGMAWYRQAPGKERELVAAISYDSGSTYYADSVTGRFTISRDNAKNTVYLQMNSLNPEDTAVYYCAAEWGLVIYSTYGYDYWGQGTQVTVSS	low polyreactivity
QVQLVESGGGLVQAGGSLRLSCAASGFTFGRYAMGWYRQAPGKVRELVAGITSGGSTYYADSVKGRFTISRDNAKKTVYLQMNSLKPEDTAVYYGAKASAYGLANDYDYWGQGTQVTVSS	low polyreactivity
QVQLVESGGGLVQAGGSLRLSCAASGSIFYHNAMGWYSPAPGKERELVAAISASGSTYYADSVKGRFTISRDNAKNTVSLQMNSLKTEDTAVYYCTFYWYNYWGQGTQVTVSS	high polyreactivity
QVQLVESGGGLVQAGGSLRLSCAASGRISIWYDMGWYRQAPGKERELVASITSGGSTYADSVKGRFTISRDNAKNTVYLQMNSLKPEDTAVYYCAADEAPYGTSEQRHSRFSHWGQGTQVTVSS	low polyreactivity
QVQLVESGGGLVQAGGSLRLSCAASGGIFAYYTMGLYTQDHGKERELVAAISTSSVNTYYADSVKGRFTISRDNAKHTVYLQMNSLKQEVNAVYYCAAEVYYGYDYCGQGTQVTVSS	low polyreactivity
EEELVESGGGLVQAGGSLRLSCAASGRTFVYNAMGWYRQAPGKERELVATITRGVSTNYADSVKGRFTISRDNAKNTVYLQMNSLKPEDTAVYYFAAVWYYQFGVWGYYWGQGTQVTVSS	low polyreactivity
QVQLVESGGGLVQAGGSLRLSCAASGSISTWYAMGWYRQATGKERELVAAINSGDSTYYADSVKGRFTISRDNAKNTVYLQMNSLKPEDTAVYYCAASSYSSKPFDYWGQGTQVTVSS	high polyreactivity
QVQLVESGGGLVQAGGSLRLNCAASGSIFDDYAMGWYRQAPGKERELVAAINIRTGSTYYADSVKGRFTISRDNAKNTVYLQMHSLKPEDTEVYYCNRVVRGFVRHLDYWGQGTQVTVSS	low polyreactivity
QVQLVESGGGIVQAGGSLRLSCAASGRIFDRYAMGWYRQAPGTERELVAAITGSGGRTYYADSVKGRFTISRDNAKNTVYLQMNSLKPEDTAVYYCARALGQRGYVYWGQGTQVTVSS	high polyreactivity
QVQLVESGGGLVQAGGSLRLSCAASGSSGYFYALGWSRPAPGKERELVADMDWSGDSTYYADSVKGRFTISRDNAKTTVYLQMNSLKPEDTAVYYCNAAYDYYSPSYTYDYWGQGTQVTVSS	low polyreactivity
QVQLVESGGGLVQAGGSLRLSCAASGSTFNRYAMGWYRQAPGKERELVAAITSTGGTNYADSVKGRFTISLDNAKNTVYLQMNSLKPEDTAVYYCAKRWLRWRSNYWGQGTQVTVSS	high polyreactivity
QVQLVESGGGLVQAGGSLRLSCAASGFIFAQNTMGWYRQAPGKERELVAAITRRGGSTYYADSVKGRFTISRDNAKNTVYLQMNSLKPEDTAVYYCNVAFRSYYTSSLLDYWGQGTQVTVSS	high polyreactivity
QVQLVESGGGLVQAVGSLRLSCAASGFILTRYAMGWYRQAPGKERELVAGIRLRGGSTYYADSVKGRFTISRDNAKNTVYLQMNSLKPEDTAVYYCAARYYYQYDYWGQGTQVTVSS	high polyreactivity
QVQLVESGGGLVQAGGSLRLSCAASGLIFTTNAMGWYRQAPGKERELVAAISTSTGRTYYADSVKGRFTISRDTAKNTVYFQMNSLKPEDTAVYYCAADGFLSYYGFWRYEYWGQGTQVTVSS	high polyreactivity
QVQLVESGGGLVQAGGSLRLSCAASGRTFPNYAMGWYRQAPGKERELVAAITRGVRTHYADSVKGRFTISRDNAKNTVYLQLNSLKQEDTAVYYCARSYRSDGSRFGYWGQGTQVTVSS	low polyreactivity
QVQLVESGGGLVQAGGSLRLSCAASGRIFKPYALGWYRPAPGKERELVAALSWTGGRTRYADSVKGRFTISRDNAMNTVYLQMNSLKPEDTAVYYCAAYAIVRSYFIYDYWGQGTQVTVSS	high polyreactivity
QVQLVETGGGLVQAGGSLRLSCAASGSTFQPYAMGWYRQAPGKERELVAAIRSIAGSTYYADSVKGRFTISRDNAKITVYLQMNILKPDDTAVYYCAADWWRVEMDYWGQGTQVTVSS	low polyreactivity
QDQLVESGGGLGQAGGSLRLSCAASGSTFNNYAMGWYRQAPGKERELVAVITKRGGSTYYADSVKGRFTISRDTAKNTVHLQMNSLKPEDTAVYYCPASSLYDGYWGQGTQVTVSS	high polyreactivity
QVQLVESGGGLVQAGGSLRLSCAASGSTFEVYAMGWYRQAPGKEREMVAAINSRGTSTYYADSVKGRFTISRDNEKNTVYIQMNSLKPEDTAVDFCAARHVYYSGYDYWGQGTQVTGSS	low polyreactivity
QVQLVESGGGLVQAGGSLRLSCAASGSIFGVNAMGWYRQTPGKERELVARINWSSGRTYYADSVKGRFTISRDNAKNTVYLQMNSLKQEDTAVYYCAAAYWRPGVRFFGPYDYWGQGTQVTVSS	high polyreactivity
QVQLVESGGGLVQAGGSLRLSCAASGFTFRGNAMGWYRQAPGKERELVAAITRRGGSTYYADSVKGRFTISRDNAKNTVYLQMNSLKPEDTAVYYCARDSPRPPQSSRMAYWGQGTQVTVSS	high polyreactivity
QVQLVESGGGLVQAGGSLRLSCAASGSTFSSYAMGWYRPAPGKERELVARISSSGGRTSYADSVKGRFTISRDHAKNTVYLQMNSLKAEDTAVSYCAAEDQYYRYFFSYEYWGQGTQVTVSS	high polyreactivity

Sequence	polyreactivity (PSR sort gate)
QVQLVESGGGLVQAGGSLRLSCAASGNIFSLNGMGWYRQAPGKEREFVAAITWSVGSTSSADSVKGRFTISRDNAKNTVYLQMNSLKPEDTAVYYGAATVSDLYKHEYYYWGQGTQVTVSS	low polyreactivity
QVQLQESGGGLVQAGGSLRLSCAASGTIFWLWAMGWYCQAPGKERELVASISSGGTTYHADSVKGRFTISRDNAKNTVYLQMNSLKPEDTAVYYSAAFYVATSKLGFWGQGSQVTVSS	low polyreactivity
QVQLVESGGGLVQAGGSLRLSCAASGGTFRVYAMGWYRQAPGKERELVAAITGRGGSTYYADSVKGRFTISRDNAKNTVYLQMNSLKPEDTAVYYCAKDPVTTYYKYDYWGQGTQVTVSS	low polyreactivity
QVHLVESGGGLVQAGGSLRLSCAASGFTFRWYAMGGDRQAPGKERALVAAIDSTDITNYADSVKGRFTISRDNAKNTVYLQMNSLKPEDTAVYYCAAELYPALYPFRISGTYGYWGQGTLVTVSS	high polyreactivity
QVQLVESGGGLVQAGGSLRLSCAASGRILDANDMGWYRQAPGKERELVAGINSGGSTYYADSVKGRFTISRDNAKNTVYLQMNSLKPEDTAVYYCAAGGVSAKYDYWGQGTKVTVSS	low polyreactivity
QVQLVESGGGLVQAGGSLRLSCAASGSTFTPYGMGWYRQAPGKERELVAAITVSGGRTYYADSVKGRFTISRDNAKNTVYLQMNSLKPEDTAVYYCAAVYLRGDGEYDSWGQGTQVTVSS	low polyreactivity
QVQLVESGGGLVQAGGSLRLSCAASGYIFVHYAMGWYRQAPGKERDLVAAITRGGNTYYADSVKGRFTISRDNANNTVNLQMNSLKPEDTAVHYCAADNYGRGAGYDYWGQGSQVTVSS	high polyreactivity
QVQLVESGGGLVQAGGSLRLSCAASGSIFVYYAMGWYRQAPGKERELVASISRGGTSTYYADSVKGRFTISRDNAKNTVYLQMNSLKPEDTAVYYCAAQPYRTGTYDYWGQGTQVTVSS	low polyreactivity
QVQLVESGGGLVQAGGSLRLSCAASGSTFNFYAMGWYRQAPGKDREFVAAITSSGDSTYYADSVKGRFTISRDNAKNTAYLQMNSLKPEDTAVYYCAARLRWRYSYDYWGQGTQVTVSS	high polyreactivity
QVQLVESGGGLVQAGGSLRLTCAASGSTLYVYPMGWYRPAPGKERELVASINSGGSTNYADSVKGRFSISRDNAKNTVYLQMNSLKRVDTAVYYCNAEYYGWFHHYDYWGQGTQVTVSS	high polyreactivity
QVQLVESGVGLVQAGGSLRLSCAASGRIFAYNAMGWYRQAPGKERELVAAISSSDDDTYYADSVKGRFTISRDNAKNTVYLQMNSLKPEDTAGYYCAAEWDTDRLWAGPRGSLYDYWGQGTQVTVSS	high polyreactivity
QVQLVESGGGLVQAGGSLRLSCAASGLTFQSYAMGWYRQAPGKERELVAAISRRSGSTYYADSVKGRFTISRDNAKNTVYLQMNSLKPEDTAVYYCTTRRGERGYWGQGTQVTVSS	high polyreactivity
QDQLVESGGGLVQAGGSLSLCCAASGFTFKLYAMGWYRQAAGKVREVVAAISSSGGRTYYADSVKGRFTISRDNAKNTVYLQMNSLKPEDTAVYYCNAVRTVNDYHYDYSGQGTQVTVSS	high polyreactivity
QVQLVESGGGLVQAGGSLRLSCSASGFIFYGYTMGWYRQAPGKERELVAAITFSGGRTYYADSVKGRFTISRDHAKNTVYLQMNSLKPEDSAVYYCAALHYGRYRMDYWGQGTQVTVSS	high polyreactivity
QVQLVESGGGLVQAGGSLRLSCAASGITFGPYAMGWYRQAPGKERELVAAISSGGRTNYADSVKGRFTISRDNAKNTVYLQMNSLKPEDTAVYYCAARFAYFREYGTYYYWGQGTQVTVSS	high polyreactivity
QVQLVESGGGLVQAGGSLRLSCAASGRTIDHYAMGWYRQAPGKERELVAAISTTGGSTYYADSVKGRFTISRDNAKNTVYLQMNSLKPEYTAVYYCAARGLRTGGYWGQGTQVTVSS	high polyreactivity
QVQLVESGGGLVQAGGRLRLSCAASGSTFRVYAMGWYRQAPGKERELFAAIRSGGGTNYADSVKGRFTISRDNAKNTVYLQMNSLKPEDTAVYYCAREAATDISPGYDYWGQGTQVTVSS	low polyreactivity
QVQLVESGGGLVQAGGSLRLSCAASGRTFYVNAMGWYRQAPGKERELVASITSGGSTYYADSVKGRFTISRDNAKNTVSLQMNSLKPEDTAVYYCAAGSKDLYRPYDYWGQGTQLTVSS	high polyreactivity
QVQLVESGGGLVQAGGSLRLRGAASGFTYLYYAMGWYRQAPGKERELVAAITWSGDSTYYADSVKGRFTISRDNAKNTVYLQMNSLKPEDTAVYYCANGGVTFGTVVRGVDGDYWGQGTQVTVSS	low polyreactivity
QVQLVESGVGLVQAGGSLRLRCAASGITFGTYPMGWYRQAPGKEREFVAGYYADSVKGRFTISRDNAKNTVYLQMNSLKPEDTAVYYCAADYLYHDDVDYWGQGTQVTVSS	low polyreactivity
QVQLVESGRGLVQAGCSLRLSCAASGSILHYNAMGWYRQAPGKERELVASITNSGRTYYADSVKGRFTISRDNAKNTDYLHMNSLKPEDTAVYYCAAQGTWRYFGHRHNYWGQGTQVTVSS	high polyreactivity
